Assay results taken from the RNAGym collection of RNA variant scans (doi:10.7554/elife.80360).

B1: CPEB3 Ribozyme (parent)
chain: GGGGGCCACAGCAGAAGCGUUCACGUCGCGGCCCCUGUCAGAUUCUGGUGAAUCUGCGAAUUCUGCUGU

Variants of: B1
Assay: self-cleavage, relative activity (ratio to wild type); higher = more cleavage; co-transcriptional

Variant	self-cleavage
U21G U46G	0.503
U21G U46A	0.537
C22G G28U	0.182
C22G G28C	0.18
U21C G65A	0.671
U21C G65C	0.393
U21C G65U	0.488
U21C C45A	0.87
U21C C45U	0.88
C22G G30U	0.162
C22G G30C	0.166
C22G G30A	0.219
C22A C32G	0.182
C22A C32A	0.224
C22A C32U	0.201
U21G U55A	0.592
U21G U55C	0.358
U21G U55G	0.346
U21G G50U	0.588
U21G	0.644
U21G U38A	0.157
U21G U38G	0.274
C22A G56A	0.134
C22A G56C	0.173

Variant	self-cleavage
U21G U53C	0.354
U21G U53G	0.376
U21G C22G	0.227
U21G C22U	0.181
U21G C22A	0.2
C22G U36C	0.236
C22G U36A	0.152
C22G U36G	0.143
U21G C24A	0.106
U21G C24U	0.103
U21C G30U	0.268
U21C G30A	0.522
U21C G30C	0.235
U21G A51U	0.497
U21G A51C	0.509
U21G A51G	0.54
U21C C66G	0.744
U21C C66U	0.887
C22G G47C	0.122
C22G G47U	0.133
C22G G47A	0.149
C22G G58U	0.202
C22G G58C	0.161
C22A A42C	0.251

Variant	self-cleavage
C22A A42G	0.207
U21G G68A	0.794
C22A C29G	0.162
C22A C29A	0.169
C22A C29U	0.158
U21C C57A	0.252
U21C C57U	0.379
C22A C24U	0.128
C22A C24G	0.249
U21C U38G	0.432
U21C U38A	0.171
U21C U38C	0.808
U21C C54U	0.883
U21C C54G	0.688
U21C C54A	0.769
C22G G31U	0.178
C22G G65C	0.196
C22G G65U	0.212
C22G G65A	0.173
U21C G47C	0.915
U21C G47U	0.978
U21C G47A	0.915
U21C G58U	0.952
U21C G58C	0.826

Variant	self-cleavage
U21C G58A	0.673
U21G C32U	0.609
U21G C32A	0.246
U21G C32G	0.189
C22G C63U	0.123
C22G C63G	0.209
C22G C63A	0.141
C22A C57G	0.187
C22A C57U	0.137
U21C U49G	0.927
U21C U49A	0.847
U21C U49C	0.868
C22G G48A	0.226
C22G G48U	0.161
U21G C27G	0.227
C22G C27U	0.142
C22G C27A	0.149
U21C U26C	0.805
U21C U26G	0.459
U21C U67C	0.898
U21C U67A	0.921
U21G A59C	0.223
U21C U69C	1.05
C22A C54U	0.139

Variant	self-cleavage
C22A C54G	0.2
U21C G25C	0.118
U21C G25A	0.121
U21C G25U	0.13
U21G U49C	0.738
U21C G48C	0.967
U21C G48U	0.901
U21G C57A	0.22
U21G C57U	0.253
U21C U62C	0.516
U21C U62G	0.614
C22A A23C	0.202
C22G C35A	0.169
C22G C35U	0.208
C22G C35G	0.231
U21C U46A	0.88
U21C U46G	0.991
C22A G41U	0.154
C22A G41C	0.138
C22A G41A	0.12
C22G C29G	0.225
C22G C29U	0.07
U21G U61G	0.24
U21G U61C	0.214

Variant	self-cleavage
C22G U38G	0.177
C22G U38C	0.232
C22G U38A	0.165
C22A A52U	0.118
C22A A52G	0.214
C22A U43G	0.181
C22A U43A	0.143
U21C G41A	0.677
U21C G41C	0.538
U21C G41U	0.73
U21G G31A	0.175
U21G G31U	0.24
U21G U36A	0.17
U21G G56U	0.611
C22A G47A	0.217
C22A G47U	0.18
C22A U49G	0.0812
C22A U49A	0.195
C22A U49C	0.209
C22A U67A	0.174
C22A U67G	0.27
C22A G48C	0.162
C22A G48A	0.223
C22A G48U	0.162

Variant	self-cleavage
C22A G65A	0.152
C22A G65U	0.209
U21G A60U	0.295
U21G A60G	0.251
C22A U53G	0.151
C22A U53A	0.208
U21C U64G	0.75
U21C U64C	0.609
U21G G65C	0.306
U21G G65U	0.243
U21G C54G	0.423
U21G C54U	0.591
U21G G28U	0.0808
U21G A42U	0.503
U21G A42C	0.303
U21C U53C	0.726
U21C U53A	0.765
U21C U61G	0.7
U21C U61C	0.572
C22A A60C	0.129
U21C C39A	0.498
U21C C39U	0.842
U21G G25U	0.187
U21G G25C	0.185

Variant	self-cleavage
U21G C34A	0.218
U21G G58C	0.519
U21G G58U	0.657
U21G U43A	0.235
U21G U43G	0.324
U21G U43C	0.428
C22A C45G	0.194
U21G A23U	0.483
U21G A23C	0.379
U21G C63A	0.245
U21G U69G	0.823
U21G U69C	0.863
U21G U69A	0.667
U21C G56U	0.693
U21C G56A	0.657
C22A A40U	0.235
C22A A40C	0.222
C22A A40G	0.246
C22A	0.201
C22G	0.181
C22A U26C	0.242
C22A U26G	0.305
U21G U26A	0.3
U21G U26G	0.221

Variant	self-cleavage
C22A G25U	0.115
C22A G25A	0.162
C22A U46A	0.181
C22A U46C	0.186
C22A U46G	0.148
U21G C66A	0.263
U21G C66G	0.219
U21G C66U	0.529
U21C G28C	0.0853
U21C G28U	0.105
C22G C45G	0.229
C22G C45A	0.223
C22A A51U	0.242
C22A A51G	0.169
C22G G68U	0.197
C22A C66G	0.138
C22A C66U	0.177
U21C C63U	0.804
U21C C63A	0.47
U21C C63G	0.635
C22A C33A	0.2
C22A C33U	0.218
C22G A23G	0.217
C22A U36G	0.161

Variant	self-cleavage
C22A U36A	0.137
C22G A51U	0.163
C22G A51C	0.151
C22G A51G	0.131
C22G G25C	0.248
C22G G25U	0.146
C22G G25A	0.177
U21C U55C	0.611
U21G G48U	0.594
U21G G48A	0.674
U21G G48C	0.648
U21C G50A	0.949
U21C G50C	0.849
U21C G50U	0.878
C22A U69C	0.291
C22A U69A	0.189
C22A U69G	0.301
C22G U26G	0.163
U21C U43A	0.771
U21C U43G	0.682
C22G G50U	0.145
C22G G50C	0.127
C22A C63G	0.114
C22A C63A	0.13

Variant	self-cleavage
C22G A59C	0.151
C22G A59U	0.246
C22G A59G	0.204
C22A G31U	0.194
C22A G31A	0.174
C22A G31C	0.137
C22G A52G	0.124
C22G A52C	0.191
C22G A52U	0.146
C22A C34A	0.206
U21G C29U	0.166
U21G C29G	0.158
C22A C35A	0.252
C22A C35U	0.138
C22A C35G	0.153
C22G G41U	0.178
C22G G41A	0.147
C22G G41C	0.105
C22G C57G	0.205
C22A U38A	0.225
C22A U38G	0.131
C22G U43A	0.114
C22G C39G	0.0932
C22G C39A	0.0996

Variant	self-cleavage
C22G C39U	0.236
C22A U44G	0.237
U21G C39G	0.865
C22A G50U	0.253
C22A G50C	0.234
U21C G68A	1
C22A G37C	0.265
C22A G37U	0.937
C22G C54G	0.125
C22G C54A	0.121
C22G C54U	0.204
U21G A52U	0.608
U21G A52G	0.615
U21C U36G	0.286
U21C U36A	0.0993
U21C U36C	0.479
C22A G30C	0.168
C22A G30U	0.181
U21G U44A	0.498
U21G U44G	0.386
U21G U44C	0.444
C22A G58U	0.119
C22A G58A	0.179
C22A G28A	0.158

Variant	self-cleavage
C22A G28C	0.124
C22A G28U	0.159
C22G G37U	0.527
U21G U67G	0.579
C22G C66A	0.135
C22G C66G	0.182
C22A U61A	0.219
C22A U61G	0.25
C22A U61C	0.164
U21C G37C	0.23
U21C G31U	0.395
U21G A40G	0.463
U21G A40U	0.317
U21G U62C	0.305
U21G U62G	0.273
U21G U62A	0.316
U21G G37C	0.18
U21G G37U	0.196
U21G G37A	0.193
C22G C34A	0.194
C22G C34G	0.177
C22A U64G	0.0937
C22A U64C	0.168
C22A U64A	0.176

Variant	self-cleavage
C22A U62G	0.112
C22A U55A	0.234
C22A U55C	0.113
C22G A60U	0.0906
C22G A60C	0.133
C22A C39U	0.206
U21G C33U	0.575
U21G C33A	0.163
U21G C33G	0.215
C22G C32A	0.117
C22G C32G	0.139
C22G C24A	0.129
U21G C35A	0.13
C22G C33A	0.195
C22G C33U	0.264
C22G G56U	0.202
U21G G41U	0.373
U21G G41A	0.388
U21G G41C	0.276
C22G A42C	0.23
C22G A42G	0.132
C22G A42U	0.194
